Laboratory results published in article PMC5680790 (mAbs, 2017).

How the values were obtained:
EGFR-ECD [1] = target: T1, EGFR-ECD (UniProt P00533 25-645); test: BLI
EGFR-ECD [2] = target: T1, EGFR-ECD; test: BLI; remark: listed apart in the source

Kd (EGFR-ECD [1]): ~1 nM
koff (EGFR-ECD [2]): 0.00034 s⁻¹
kon (EGFR-ECD [2]): 350000 M⁻¹ s⁻¹
B1: Anti-EGFR mAb (antibody, V domains shown)
VH: EVQLVESGGGLVQPGGSLRLSCAASGFSLTNRGVHWVRQAPGKGLEWVGVIWSGGNTDYNTPFTSRFTISRDNSKNTLYLQMNSLRAEDTAVYYCARALTYYDYEFAYWGQGTLVTVSS
VL: not shown
